From PMC9508834, “Mechanism of protein-primed template-independent DNA synthesis by Abi polymerases” (Nucleic Acids Research, 2022)
Several values for one entry are separate records, joined by “and”; a condition that tells them apart may be missing. Equal entries are not always repeated.

Key:
[1] = biological target: Abi-P2 of E. coli prophage EC30 (residues 1–541) (E. coli prophage EC30 (Enterobacteria phage P2-EC30)); experiment: SEC-MALS; Superdex 200 Increase 10/300 GL, 100 μl samples, 25 mM Tris pH 7.0, 400 mM NaCl, 2% glycerol, 1 mM DTT
[2] = biological target: Abi-P2 of E. coli prophage EC30 (residues 1–541) (E. coli prophage EC30 (Enterobacteria phage P2-EC30)); experiment: cryo-EM structure; Abi-P2 1 mg/ml in 20 mM Tris pH 7.0, 500 mM NaCl, 1 mM DTT; tilted dataset, C3 symmetry, 3.9 Å low-quality reconstruction, not deposited
[3] = biological target: Abi-P2 of E. coli prophage EC30 (residues 1–541) (E. coli prophage EC30 (Enterobacteria phage P2-EC30)); experiment: crystal structure; Abi-P2 (1–541) 6 mg/ml, sitting drop at 18°C and 4°C; space group P2(1); 3.1 Å
[4] = biological target: the molecule itself; experiment: cryo-EM structure; Ll-AbiK 1.0 mg/ml on Quantifoil R1.2/1.3 grid, single-particle reconstruction with D3 symmetry, 2.3 Å
[5] = biological target: the molecule itself; experiment: cryo-EM structure; Ll-AbiK Y44F 1.74 mg/ml on C-flat-2/1 grid, 2D classification; only hexamer classes used for the reconstruction (D3 symmetry, 2.7 Å)

Work on “Abi-P2 of E. coli prophage EC30 (residues 1–541) (enzyme)” yielded a stoichiometry N [1] of 3, a stoichiometry N [2] of 3 and a stoichiometry N [3] of 3.

B1: Lactococcus lactis AbiK, wild type (Ll-AbiK–DNA adduct) (enzyme)
chain: MKKEFTELYDFIFDPIFLVRYGYYDRSIKNKKMNTAKVELDNEYGKSDSFYFKVFNMESFADYLRSHDLKTHFNGKKPLSTDPVYFNIPKNIEARRQYKMPNLYSYMALNYYICDNKKEFIEVFIDNKFSTSKFFNQLNFDYPKTQEITQTLLYGGIKKLHLDLSNFYHTLYTHSIPWMIDGKSASKQNRKKGFSNTLDTLITACQYDETHGIPTGNLLSRIITELYMCHFDKQMEYKKFVYSRYVDDFIFPFTFENEKQEFLNEFNLICRENNLIINDNKTKVDNFPFVDKSSKSDIFSFFENITSTNSNDKWIKEISNFIDYCVNEEHLGNKGAIKCIFPVITNTLKQKKVDTKNIDNIFSKRNMVTNFNVFEKILDLSLKDSRLTNKFLTFFENINEFGFSSLSASNIVKKYFSNNSKGLKEKIDHYRKNNFNQELYQILLYMVVFEIDDLLNQEELLNLIDLNIDDYSLILGTILYLKNSSYKLEKLLKKIDQLFINTHANYDVKTSRMAEKLWLFRYFFYFLNCKNIFSQKEINSYCQSQNYNSGQNGYQTELNWNYIKGQGKDLRANNFFNELIVKEVWLISCGENEDFKYLN
modifications: DNA (9–17 nt by mass spectrometry) covalently attached by its 5′ end to the hydroxyl group of Tyr44
notes: AbiK of Lactococcus lactis, encoded on plasmid pSRQ800; synthetic gene; theoretical MW of the monomer 71.5 kDa; it says that the whole length of the polypeptide chain is visible in the model except residues 189–190; The short DNA was synthesised in the bacterial cell and co-purified; source: E. coli BL21 Star (DE3), purified (HisTrap, SUMO protease, HisTrap flow-through, Superdex 200); not shown: …
In the case of B1, the “stoichiometry N” value [4] is reported as 6.

B2: Ll-AbiK Y44F (enzyme, Lactococcus lactis)
chain: MKKEFTELYDFIFDPIFLVRYGYYDRSIKNKKMNTAKVELDNEFGKSDSFYFKVFNMESFADYLRSHDLKTHFNGKKPLSTDPVYFNIPKNIEARRQYKMPNLYSYMALNYYICDNKKEFIEVFIDNKFSTSKFFNQLNFDYPKTQEITQTLLYGGIKKLHLDLSNFYHTLYTHSIPWMIDGKSASKQNRKKGFSNTLDTLITACQYDETHGIPTGNLLSRIITELYMCHFDKQMEYKKFVYSRYVDDFIFPFTFENEKQEFLNEFNLICRENNLIINDNKTKVDNFPFVDKSSKSDIFSFFENITSTNSNDKWIKEISNFIDYCVNEEHLGNKGAIKCIFPVITNTLKQKKVDTKNIDNIFSKRNMVTNFNVFEKILDLSLKDSRLTNKFLTFFENINEFGFSSLSASNIVKKYFSNNSKGLKEKIDHYRKNNFNQELYQILLYMVVFEIDDLLNQEELLNLIDLNIDDYSLILGTILYLKNSSYKLEKLLKKIDQLFINTHANYDVKTSRMAEKLWLFRYFFYFLNCKNIFSQKEINSYCQSQNYNSGQNGYQTELNWNYIKGQGKDLRANNFFNELIVKEVWLISCGENEDFKYLN
notes: AbiK of Lactococcus lactis with the protein-priming tyrosine 44 replaced by phenylalanine; Unable to carry out protein-primed DNA synthesis, so it carries no DNA; Purification of the variants is described only in general terms with the wild type; also called Y44F variant; source: E. coli BL21 Star (DE3), purified; not shown: His6-SUMO, N-terminal, cleaved
B2 was tested, and the “stoichiometry N” value [5] was 3 and 6.
